Results reported in patent US20090075929.

How the values were obtained:
[1] = tested on: GST-wtMADD (bacterially expressed, purified)

recombinant Akt (rAkt; protein kinase B)
in vitro phosphorylation (32P autoradiography) (GST-MADD70A (S70A)): The phosphorylation levels of MADD mutants including MADD70A, MADD173A and MADD1041A were reduced or absent
in vitro phosphorylation (32P autoradiography) [1]: recombinant wild-type MADD (wtMADD) was phosphorylated by Akt
in vitro phosphorylation (32P autoradiography) (GST-MADD1041A (T1041A)): The phosphorylation levels of MADD mutants including MADD70A, MADD173A and MADD1041A were reduced or absent
in vitro phosphorylation (32P autoradiography) (GST-MADD173A (T173A)): The phosphorylation levels of MADD mutants including MADD70A, MADD173A and MADD1041A were reduced or absent
